Reference: publication PMC8376252

Experiments:
Test in all cases: BLI; Octet RED; antibody (IgG, 10 µg/mL) immobilised on anti-human IgG Fc capture biosensors; antigen as analyte, six twofold dilutions from 2 µM (gp120 monomers) or 500 nM (BG505.SOSIP.664 trimer); 1X PBS, 0.1% BSA, 0.005% Tween-20, 0.02% sodium azide; 23°C; association 180 s, dissociation 180 s; double reference subtraction; global 1:1 fit
[1] = target: mature heavy chain paired with the inferred naive light chain (matVH 0VL) (human)
mature heavy chain paired with the inferred naive light chain (matVH 0VL) (human), sequence (heavy, as listed by the source): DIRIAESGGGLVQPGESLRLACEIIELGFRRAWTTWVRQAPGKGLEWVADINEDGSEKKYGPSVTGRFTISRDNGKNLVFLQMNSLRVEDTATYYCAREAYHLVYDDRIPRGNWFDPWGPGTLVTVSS

[2] = target: ∆CDR1VH heavy chain chimera paired with the mature light chain (human)
∆CDR1VH heavy chain chimera paired with the mature light chain (human), sequence (light, as listed by the source): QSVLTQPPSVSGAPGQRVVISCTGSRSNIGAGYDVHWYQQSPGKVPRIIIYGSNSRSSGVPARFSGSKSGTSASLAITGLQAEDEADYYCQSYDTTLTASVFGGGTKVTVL

[3] = target: mature heavy chain paired with Int5∆FWR2-FWR3VL (human)
mature heavy chain paired with Int5∆FWR2-FWR3VL (human), sequence (heavy, as listed by the source): as the sequence (heavy, as listed by the source) above

With “BG505.SOSIP.664 trimer (from UniProt Q2N0S6 1-860; Q2N0S6 1-860) (complex)” the Kd [1] was 89.6 nM, the Kd [2] was 40.6 nM and the Kd [3] was 1300 nM.
